The results in this text go back to paper PMC2646141.

Sequences and labels used below:
B1: wild type APOBEC3G prey [human] / wild type APOBEC3G bait [human] (parent)
chain 1: MKPHFRNTVERMYRDTFSYNFYNRPILSRRNTVWLCYEVKTKGPSRPPLDAKIFRGQVYSELKYHPEMRFFHWFSKWRKLHRDQEYEVTWYISWSPCTKCTRDMATFLAEDPKVTLTIFVARLYYFWDPDYQEALRSLCQKRDGPRATMKIMNYDEFQHCWSKFVYSQRELFEPWNNLPKYYILLHIMLGEILRHSMDPPTFTFNFNNEPWVRGRHETYLCYEVERMHNDTWVLLNQRRGFLCNQAPHKHGFLEGRHAELCFLDVIPFWKLDLDQDYRVTCFTSWSPCFSCAQEMAKFISKNKHVSLCIFTARIYDDQGRCQEGLRTLAEAGAKISIMTYSEFKHCWDTFVDHQGCPFQPWDGLDEHSQDLSGRLRAILQNQEN
chain 2: B1 chain 1

The variants in this assay derive from B1. The assay can be described thus: yeast two-hybrid (β-galactosidase activity). The following applies: with wild type APOBEC3G (A3G) bait [human]; parent: 0.5; read off a plot.
In the case of chain 1 W127A, the response is 0.038 OD540.

Turning to chain 1 W127Y, the response was 0.031 OD540.

For the variant chain 1 Y124A, the response was determined as 0.062 OD540.

Regarding chain 1 Y124F, the response came to 0.05 OD540.

For the variant chain 1 Y124L, the response stood at 0.042 OD540.

For the variant chain 1 Y315L, the response turned out to be 0.5 OD540.

Consider chain 1 Y315F, for which the response was found to be 0.34 OD540.

With chain 1 Y315A, the response was 0.59 OD540.
